Legend:
zebrafish RHBDL2 = experiment: Zebrafish RHBDL2 knockout by antisense morpholino injection into embryos; assay type: in vivo, Zebrafish (Danio rerio); conditions: injected into 1-4 cell embryos at 2-4 μM, assessed after 24 and 48 hours
Protocol: Knockout of the zebrafish RHBDL2 was performed by standard procedures (McClintock J M, Kheirbek M A, Prince V E. 2002. Development. 129, 2339-2354.). A morpholino antisense oligonucleotide ([…]) SEQ.ID. 7 complementary to the region of the cDNA surrounding the start of translation was injected into 1-4 cell embryos at 2-4 μM. After 24 and 48 hours the phenotype was assessed and compared with wild-type embryos of equivalent stages. In situ hybridisation to RHBDL2 was performed by standard techniques.
To investigate the role of vertebrate Rhomboids, the zebrafish homologue of human RHBDL2 (sequenced from cDNA clone 2652120, GenBank accession number AW422344) was knocked out using the standard technology of antisense morpholino oligonucleotides (reviewed in Heasman J. Dev Biol. Mar. 15, 2002;243(2):209-14), which allows the rapid removal of a gene function. Zebrafish embryos are a common model system as their embryonic development is easily observed.

Rhomboid-1 = target: T1, Rhomboid-1 (Drosophila melanogaster, UniProt P20350); experiment: Rhomboid-1 and Star dependent cleavage of GFP-Spitz in transfected COS cells (western blot of medium); assay type: cell-based; conditions: co-expressed with Star and full-length Rhomboid-1 in COS cells
T1 construct: When co-expressed with Star and full-length Rhomboid-1 in the COS cell Spitz cleavage assay; expressed in transfected cells; host or cells: COS cells, pcDNA3.1 constructs, transient transfection
T1 sequence (P20350 1-355): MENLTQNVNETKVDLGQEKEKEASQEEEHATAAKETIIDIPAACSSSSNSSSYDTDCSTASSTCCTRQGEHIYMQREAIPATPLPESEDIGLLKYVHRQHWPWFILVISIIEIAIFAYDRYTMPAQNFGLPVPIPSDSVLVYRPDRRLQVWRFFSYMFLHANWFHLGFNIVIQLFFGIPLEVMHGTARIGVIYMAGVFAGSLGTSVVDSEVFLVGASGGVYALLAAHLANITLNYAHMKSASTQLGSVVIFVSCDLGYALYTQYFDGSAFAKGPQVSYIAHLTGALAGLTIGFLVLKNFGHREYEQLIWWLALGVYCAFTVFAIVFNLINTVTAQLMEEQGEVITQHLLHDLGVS
Protocol: COS cells were grown in DMEM medium (supplemented with 10% foetal calf serum), and transfected with FuGENE 6 Transfection Reagent (Roche). Cells were transfected in 35 mm culture wells with 25-250 ng of each construct and empty plasmid to bring the total DNA to 1 μg per well. 24-30 hours post-transfection the medium was replaced with serum-free medium; this was harvested 24 hours later and cells were lysed in SDS-sample buffer. GFP was detected in conditioned medium and cell lysates by western blot with a rabbit polyclonal antibody. For some experiments the serum-free medium was supplemented with the metalloprotease inhibitor batimastat (British Biotech) or ilomostat (Calbiochem). Cells were transfected as standard with 1 ng of Rhomboid-1 DNA (in 1 μg total DNA) and were then incubated in serum-free medium for 24 hours. The medium was then replaced with 0.5 ml serum free medium containing protease inhibitor at the indicated concentration and incubated for 1 hour. After 1 hour, the medium was collected, cleared by centrifugation, dialysed overnight against several changes of water and lyophilised. The resulting pellets were re-suspended in SDS sample buffer, boiled and analysed by Western blot. Transfections with a secreted form of Spitz were used in parallel to control for non-specific toxicity of the protease inhibitors or general inhibition of the secretory pathway. The proteolytic cleavage assay was recapitulated in a mammalian tissue culture system. Spitz was tagged with GFP near its N-terminus and transiently expressed in COS cells, in the presence or absence of Star and/or Rhomboid-1. The accumulation of the soluble extracellular fragment of GFP-Spitz in the cell medium was then measured by western blot.

release of TGFα = experiment: Release/secretion of TGFα from transfected COS cells; assay type: cell-based, human; conditions: expression of truncated Rhomboid-1, compared with control
Protocol: COS cells were grown in DMEM medium (supplemented with 10% foetal calf serum), and transfected with FuGENE 6 Transfection Reagent (Roche). Cells were transfected in 35 mm culture wells with 25-250 ng of each construct and empty plasmid to bring the total DNA to 1 μg per well. 24-30 hours post-transfection the medium was replaced with serum-free medium; this was harvested 24 hours later and cells were lysed in SDS-sample buffer. GFP was detected in conditioned medium and cell lysates by western blot with a rabbit polyclonal antibody. For some experiments the serum-free medium was supplemented with the metalloprotease inhibitor batimastat (British Biotech) or ilomostat (Calbiochem).
Spitz, Star and Rhomboid-1 are the only Drosophila proteins present in the transfected mammalian cells. A possible hypothesis is that these proteins are able to recruit a mammalian protease to a processing complex. If this were the case, the principle candidate for the putative mammalian protease would be a member of the ADAM family of metalloproteases. These proteases have broad specificity and are responsible for the release of a large number of mammalian growth factors, including the Spitz homolog, TGFα. The possible involvement of these proteases was tested with the potent metalloprotease inhibitor batimastat (British Biotechnology) at 1 μM and 10 μM. […]

Molecule: anti-sense morpholino oligo TCTTGCTCTTCGGTGTCATTATCGC: morpholino antisense oligonucleotide complementary to the region of zebrafish RHBDL2 cDNA surrounding the start of translation (all phosphorodiamidate morpholino (PMO))
- embryo phenotype after knockout (zebrafish RHBDL2): specific defects in the brain, the otic placode and the tail

B1: Rho-1-NTM1: residues 1 to 149 of Rhomboid-1: N-terminal cytoplasmic domain plus first TMD and part of first extracellular loop; dominant negative (protein, UniProt P20350 1-149, looked up, fragment)
chain: MENLTQNVNETKVDLGQEKEKEASQEEEHATAAKETIIDIPAACSSSSNSSSYDTDCSTASSTCCTRQGEHIYMQREAIPATPLPESEDIGLLKYVHRQHWPWFILVISIIEIAIFAYDRYTMPAQNFGLPVPIPSDSVLVYRPDRRLQ
- ability of wild-type Rhomboid-1 to promote GFP-Spitz cleavage (Rhomboid-1): inhibited
- TGFα synthesis or secretion (release of TGFα): did not interfere

From patent US7718391B2, “Assays for identifying modulators of rhomboid polypeptides” (Medical Research Council, priority 2001, dated 2010)
